Results as given in article PMC1885262, “Purification and preliminary crystallization of alanine racemase from Streptococcus pneumoniae” (BMC Microbiology, 2007).

Legend:
[1] = substrate: C[C@@H](N)C(=O)O; experiment: alanine racemase photometric assay; format: biochemical, Streptococcus pneumoniae; settings: 23°C, D- to L-alanine direction
[2] = substrate: C[C@H](N)C(=O)O; experiment: alanine racemase photometric assay; format: biochemical, Streptococcus pneumoniae; settings: 23°C, L- to D-alanine direction

B1: AlrSP (alanine racemase from S. pneumoniae) (Streptococcus pneumoniae R6) (protein)
chain: MKASPHRPTKALIHLGAIRQNIQQMGAHIPQGTLKLAVVKANAYGHGAVAVAKAIQDDVDGFCVSNIDEAIELRQAGLSKPILILGVSEIEAVALAKEYDFTLTVAGLEWIQALLDKEVDLTGLTVHLKIDSGMGRIGFREASEVEQAQDLLQQHGVCVEGIFTHFATADEESDDYFNAQLERFKTILASMKEVPELVHASNSATTLWHVETIFNAVRMGDAMYGLNPSGAVLDLPYDLIPALTLESALVHVKTVPAGACMGYGATYQADSEQVIATVPIGYADGWTRDMQNFSVLVDGQACPIVGRVSMDQITIRLPKLYPLGTKVTLIGSNGDKEITATQVATYRVTINYEVVCLLSDRIPREYY
notes: full length, 367 residues, 39854 Da, homodimer (~80 kDa by gel filtration); pET17-alrSP (NdeI/BamHI) in E. coli BL21(DE3) pLysS; no tag mentioned
[1]
  Km: 2100 µM
[2]
  Km: 1920 µM
